One assay concerns the target H3 22-41 (Homo sapiens, unmodified; biotin, attachment site not given). Briefly: FACS; yeast surface display titration.
The target of another assay is H3K18me2 (Homo sapiens, dimethyl-Lys18 (mature numbering); biotin, attachment site not given; limits assumed from the H3 1-21 control). Kind of assay: FACS; yeast surface display titration. Background: In flow cytometry, cells or beads pass a laser one at a time.

Here are results for two molecules from publication PMC8836101 (2022).

B1: bromo-adjacent homology domain of ASH1L (domain or fragment)
chain: NFHSFNVEKQQLCKCGFEKCRGIIGGKSQRVNGLTSSKNSQPMATHKKSGRSKEKRKSKHKLKKRRGHLSEEPSENINTPTRLTPQLQMKPMSNRERNFVLKHHVFLVRNWEKIRQKQEEVKHTSDNIHSASLYTRWNGICRDDGNIKSDVFMTQFSALQTARSVRTRRLAAAEENIEVARAARLAQIFKEICDGIISYKDSSRQALAAPLLNLPPKKKNADYYEKISDPLDLITIEKQILTGYYKTVEAFDADMLKVFRNAEKYYGRKSPVGRDVCRLRKAYYNARHEASAQIDEIVGETASEADSSETSVSEKENGHEKDDDVIRCICGLYKDEGLMIQCDKCMVWQHCDCMGVNSDVEHYLCEQCDPRPVDREVPMIPRPHYAQPGCVYFICLLRDDLLLRQGDCVYLMRDSRRTPDGHPVRQSYRLLSHINRDKLDIFRIEKLWKNEKEERFAFGHHYFRPHETHHSPSRRFYHNELFRVPLYEIIPLEAVVGTCCVLDLYTYCKGRPKGVKEQDVYICDYRLDKSAHLFYKIH
Regarding B1, the Kd (commonly the free concentration of one partner at which half of the binding sites on the other are occupied at equilibrium, for simple one-to-one binding) with H3 22-41 is 6.5 µM. That is a single-digit micromolar value.

B2: tandem Tudor domains of UHRF1 (domain or fragment)
chain: WDETELGLYKVNEYVDARDTNMGAWFEAQVVRVTRKAPSRDEPCSSTSRPALEEDVIYHVKYDDYPENGVVQMNSRDVRARARTIIKWQDLEVGQVVMLNYNPDNPKERGFWYDAEISRKRETRTARELYANVVLGDDSLNDCRIIFVDEVFKIERPGE
As for B2, in the assay with H3K18me2, the affinity, expressed as Kd, was 5 µM. In other words, the single-digit micromolar range.
